Experimental data as given in publication doi:10.1101/2021.01.13.426575.

Biological target: DPP9, short isoform (DPP9S), co-expressed with CARD8 for cryo-EM (human), Q86TI2
Assay: cryo-EM structure
Settings: remark: other sources report otherwise

stoichiometry N: 2
B1: DPP9, short isoform (DPP9S), co-expressed with CARD8 for cryo-EM, Q86TI2-1 1-863 (enzyme)
chain: MATTGTPTADRGDAAATDDPAARFQVQKHSWDGLRSIIHGSRKYSGLIVNKAPHDFQFVQKTDESGPHSHRLYYLGMPYGSRENSLLYSEIPKKVRKEALLLLSWKQMLDHFQATPHHGVYSREEELLRERKRLGVFGITSYDFHSESGLFLFQASNSLFHCRDGGKNGFMVSPMKPLEIKTQCSGPRMDPKICPADPAFFSFINNSDLWVANIETGEERRLTFCHQGLSNVLDDPKSAGVATFVIQEEFDRFTGYWWCPTASWEGSEGLKTLRILYEEVDESEVEVIHVPSPALEERKTDSYRYPRTGSKNPKIALKLAEFQTDSQGKIVSTQEKELVQPFSSLFPKVEYIARAGWTRDGKYAWAMFLDRPQQWLQLVLLPPALFIPSTENEEQRLASARAVPRNVQPYVVYEEVTNVWINVHDIFYPFPQSEGEDELCFLRANECKTGFCHLYKVTAVLKSQGYDWSEPFSPGEDEFKCPIKEEIALTSGEWEVLARHGSKIWVNEETKLVYFQGTKDTPLEHHLYVVSYEAAGEIVRLTTPGFSHSCSMSQNFDMFVSHYSSVSTPPCVHVYKLSGPDDDPLHKQPRFWASMMEAASCPPDYVPPEIFHFHTRSDVRLYGMIYKPHALQPGKKHPTVLFVYGGPQVQLVNNSFKGIKYLRLNTLASLGYAVVVIDGRGSCQRGLRFEGALKNQMGQVEIEDQVEGLQFVAEKYGFIDLSRVAIHGWSYGGFLSLMGLIHKPQVFKVAIAGAPVTVWMAYDTGYTERYMDVPENNQHGYEAGSVALHVEKLPNEPNRLLILHGFLDENVHFFHTNFLVSQLIRAGKPYQLQIYPNERHSIRCPESGEHYEVTLLHFLQEYL
